Legend:
Test in all cases: purified protein
Conditions in all cases: O2 co-substrate, pH 7.5 sodium phosphate 50 mM, 35 °C
COc1ccc(CO)cc1OC = system: COc1ccc(CO)cc1OC
O=Cc1ccc(C=O)o1 = system: O=Cc1ccc(C=O)o1
O=C(O)c1ccc(CO)o1 = system: O=C(O)c1ccc(CO)o1
O=Cc1ccc(CO)o1 = system: O=Cc1ccc(CO)o1

FoxAAO (Fusarium oxysporum f. sp. lycopersici 4287)
Km (COc1ccc(CO)cc1OC): 3.0 ± 0.24 mM
kcat (COc1ccc(CO)cc1OC): 25 ± 1.2 s⁻¹
kcat/Km (COc1ccc(CO)cc1OC): 8300 M⁻¹ s⁻¹
Km (O=Cc1ccc(C=O)o1): 3.7 ± 1.0 mM
kcat (O=Cc1ccc(C=O)o1): 1.4 ± 0.13 s⁻¹
kcat/Km (O=Cc1ccc(C=O)o1): 380 M⁻¹ s⁻¹
Km (O=C(O)c1ccc(CO)o1): 3.1 ± 0.31 mM
kcat (O=C(O)c1ccc(CO)o1): 5.2 ± 0.14 s⁻¹
kcat/Km (O=C(O)c1ccc(CO)o1): 1700 M⁻¹ s⁻¹
Km (O=Cc1ccc(CO)o1): 17 ± 4.9 mM
